Tests used:
Assay in all cases: co-immunoprecipitation from co-transfected 293 cell lysates: anti-FLAG IP, anti-HA immunoblot
FLAG tagged TRAF 2 = molecular target: T1, FLAG tagged TRAF 2 (UniProt Q12933 1-501, limits assumed)
T1 sequence (looked up): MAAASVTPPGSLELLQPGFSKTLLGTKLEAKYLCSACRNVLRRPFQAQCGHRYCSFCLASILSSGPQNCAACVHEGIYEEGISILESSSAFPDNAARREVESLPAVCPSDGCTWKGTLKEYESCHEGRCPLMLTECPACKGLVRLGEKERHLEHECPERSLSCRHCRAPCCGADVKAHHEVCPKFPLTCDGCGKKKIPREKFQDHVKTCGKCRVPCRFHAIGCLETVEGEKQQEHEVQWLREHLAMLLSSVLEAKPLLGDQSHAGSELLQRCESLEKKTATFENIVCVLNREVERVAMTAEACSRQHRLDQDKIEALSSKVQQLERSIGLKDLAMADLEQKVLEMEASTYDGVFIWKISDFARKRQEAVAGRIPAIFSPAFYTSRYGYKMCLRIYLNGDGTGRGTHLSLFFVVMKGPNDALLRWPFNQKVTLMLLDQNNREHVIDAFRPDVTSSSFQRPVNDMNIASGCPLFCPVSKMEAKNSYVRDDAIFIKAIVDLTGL
Description: (§1) For TRAF binding assays, 5×10⁵ 293 cells were transfected with 10 μg of HA tagged TR12 and 10 μg of FLAG tagged TRAF 1, 2, 3, 5, or 6 by the calcium phosphate method and cells were harvested 48 hours post transfection in lysis buffer (with 1% NP-40). Whole cell lysates were immunoprecipated with anti-FLAG M2 beads (Sigma, MO), washed 5× with lysis buffer (without BSA), boiled 5 minutes, separated by 10% SDS PAGE, transferred to nitrocellulose, probed with anti-HA HRP (Roche), and developed with ECL (Amersham).
(§2) Since NF-κB activation by TNFR superfamily members is mediated primarily by the TRAF family of signaling molecules, the ability of TR12 to bind any of the TRAF molecules was studied. 293 cells were co-transfected with a FLAG tagged TRAF expression plasmid and a hemagglutinin tagged TR12 expression plasmid.

FLAG tagged TRAF 5 = FLAG tagged TRAF 5 (UniProt O00463 1-557, limits assumed)
Description: as §1, §2

FLAG tagged TRAF 3 = molecular target: T2, FLAG tagged TRAF 3 (UniProt Q13114 1-568, limits assumed)
T2 sequence (looked up): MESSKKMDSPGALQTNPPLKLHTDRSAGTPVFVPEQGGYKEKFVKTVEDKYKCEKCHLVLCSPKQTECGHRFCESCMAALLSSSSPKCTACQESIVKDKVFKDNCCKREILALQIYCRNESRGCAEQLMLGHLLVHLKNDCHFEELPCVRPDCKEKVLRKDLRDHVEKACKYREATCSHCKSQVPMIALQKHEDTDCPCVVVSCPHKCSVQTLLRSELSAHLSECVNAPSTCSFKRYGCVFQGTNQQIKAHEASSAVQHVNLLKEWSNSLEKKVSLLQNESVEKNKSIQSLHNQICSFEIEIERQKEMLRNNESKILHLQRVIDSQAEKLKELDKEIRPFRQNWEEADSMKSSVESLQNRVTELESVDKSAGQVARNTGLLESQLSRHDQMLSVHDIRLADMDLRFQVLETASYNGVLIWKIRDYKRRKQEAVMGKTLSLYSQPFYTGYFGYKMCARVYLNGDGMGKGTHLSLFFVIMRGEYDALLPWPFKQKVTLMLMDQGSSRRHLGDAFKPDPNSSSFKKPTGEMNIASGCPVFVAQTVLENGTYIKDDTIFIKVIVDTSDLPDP
Description: as §1, §2

FLAG tagged TRAF 6 = molecular target: T3, FLAG tagged TRAF 6 (UniProt Q9Y4K3 1-522, limits assumed)
T3 sequence (looked up): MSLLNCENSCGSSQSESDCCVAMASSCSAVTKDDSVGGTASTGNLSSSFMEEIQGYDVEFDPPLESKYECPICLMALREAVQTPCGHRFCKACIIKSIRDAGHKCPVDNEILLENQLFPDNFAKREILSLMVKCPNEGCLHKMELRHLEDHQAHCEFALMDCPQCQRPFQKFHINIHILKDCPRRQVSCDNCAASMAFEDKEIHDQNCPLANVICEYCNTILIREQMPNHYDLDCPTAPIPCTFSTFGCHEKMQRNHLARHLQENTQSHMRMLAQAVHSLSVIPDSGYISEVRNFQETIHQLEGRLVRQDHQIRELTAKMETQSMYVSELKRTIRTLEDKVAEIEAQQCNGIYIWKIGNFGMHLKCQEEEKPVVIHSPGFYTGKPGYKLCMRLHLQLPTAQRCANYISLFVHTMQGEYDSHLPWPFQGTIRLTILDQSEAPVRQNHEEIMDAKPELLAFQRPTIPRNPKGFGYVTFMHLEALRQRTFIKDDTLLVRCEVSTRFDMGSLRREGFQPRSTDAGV
Description: as §1, §2

Measured: binding result

Sequence of FLAG tagged TRAF 5 (O00463 whole entry): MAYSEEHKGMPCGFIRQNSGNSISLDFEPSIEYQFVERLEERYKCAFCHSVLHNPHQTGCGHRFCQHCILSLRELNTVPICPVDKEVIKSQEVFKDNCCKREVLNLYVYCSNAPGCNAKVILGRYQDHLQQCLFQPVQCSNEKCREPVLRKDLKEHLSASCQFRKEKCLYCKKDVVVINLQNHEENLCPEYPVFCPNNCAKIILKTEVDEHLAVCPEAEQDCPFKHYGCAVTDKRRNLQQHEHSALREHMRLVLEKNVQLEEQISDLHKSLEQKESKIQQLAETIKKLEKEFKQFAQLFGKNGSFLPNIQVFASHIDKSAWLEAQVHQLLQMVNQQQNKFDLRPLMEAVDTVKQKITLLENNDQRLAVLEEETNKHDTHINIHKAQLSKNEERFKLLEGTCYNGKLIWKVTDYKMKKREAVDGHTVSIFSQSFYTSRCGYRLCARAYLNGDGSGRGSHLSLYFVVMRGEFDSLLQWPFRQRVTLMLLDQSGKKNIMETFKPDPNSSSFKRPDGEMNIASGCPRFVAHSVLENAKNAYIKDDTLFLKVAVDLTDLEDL

B1: HA tagged TR12 (TNFR Related Gene 12) (receptor)
chain: STTLWQCPPGEEPDLDPGQGTLCRPCPPGTFSAAWGSSPCQPHARCSLWRRLEAQVGMATRDTLCGDCWPGWFGPWGVPRVPCQPCSWAPLGTHGCDEWGRRARRGVEVAAGASSGGETRQPGNGTRAGGPEETAAQYAVIAIVPVFCLMGLLGILVCNLLKRKGYHCTAHKEVGPGPGGGGSGINPAYRTEDANEDTIGVLVRLITEKKENAAALEELLKEYHSKQLVQTSHRPVSKLPPAPPNVPHICPHRHHLHTVQGLASLSGPCCSRCSQKKWPEVLLSPEAVAATTPVPSLLPNPTRVPKAGAKAGRQGEITILSVGRFRVARIPEQRTSSMVSEVKTITEAGPSWGDLPDSPQPGLPPEQQALLGSGGSRTKWLKPPAENKAEENRYVVRLSESNLVI
notes: Expressed from a plasmid in transfected 293 cells and tested in whole cell lysate; It includes the predicted leader (about residues 1-25), which may be cleaved in cells; also called hemagglutinin tagged TR12; not shown: HA (hemagglutinin) tag
no binding: FLAG tagged TRAF 2 | FLAG tagged TRAF 5 | FLAG tagged TRAF 3 | FLAG tagged TRAF 6

— patent US20020098541A1 (published 2002)
